# Measured values reported in the supplement of paper PMC10567573.
# B1: ALDH8A1 (parent)
# chain: RVAKKLQSGLVWTNCWLIRELNLP
# Variants of: B1
# Assay: protein stability index of a GFP-peptide fusion (GPS, HEK-293T) (PSI 1-6); higher = more stable
# Details: c terminus: a fixed tail appended
# 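Note: lentivirally expressed fusions sorted by FACS into six bins by GFP to DsRed ratio, PSI derived from sequencing read proportions per bin multiplied by bin number.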
row,Variant,protein stability index
1,RVAKKLQSGLVWTNCLLIRELNLP [W16L],1.85
2,RVAKKLQSGLVWTNCMLIRELNLP [W16M],3.3
3,RVAKKLQSGLVWTNCNLIRELNLP [W16N],2.1
4,RVAKKLQSGLVWTNCPLIRELNLP [W16P],1.22
5,RVAKKLQSGLVWTNCQLIRELNLP [W16Q],1.03
6,RVAKKLQSGLVWTNCTLIRELNLP [W16T],2.09
7,RVAKKLQSGLVWTNCWDIRELNLP [L17D],3.58
8,RVAKKLQSGLVWTNCWEIRELNLP [L17E],2.77
9,RVAKKLQSGLVWTNCWFIRELNLP [L17F],2.6
10,RVAKKLQSGLVWTNCWIIRELNLP [L17I],1.08
11,RVAKKLQSGLVWTNCWKIRELNLP [L17K],1.34
12,RVAKKLQSGLVWTNCWNIRELNLP [L17N],1.33
13,RVAKKLQSGLVWTNCWPIRELNLP [L17P],1.68
14,RVAKKLQSGLVWTNCWQIRELNLP [L17Q],1.32
15,RVAKKLQSGLVWTNCWRIRELNLP [L17R],3.13
16,RVAKKLQSGLVWTNCWLDRELNLP [I18D],1.73
17,RVAKKLQSGLVWTNCWLERELNLP [I18E],2.2
18,RVAKKLQSGLVWTNCWLHRELNLP [I18H],1.89
19,RVAKKLQSGLVWTNCWLKRELNLP [I18K],4.38
20,RVAKKLQSGLVWTNCWLMRELNLP [I18M],2.47
21,RVAKKLQSGLVWTNCWLNRELNLP [I18N],2.46
22,RVAKKLQSGLVWTNCWLPRELNLP [I18P],1.3
23,RVAKKLQSGLVWTNCWLSRELNLP [I18S],3.62
24,RVAKKLQSGLVWTNCWLTRELNLP [I18T],2.57

row,Variant,protein stability index
1,RVAKKLQSGLVWTNCWLYRELNLP [I18Y],1.89
2,RVAKKLQSGLVWTNCWLIFELNLP [R19F],1.5
3,RVAKKLQSGLVWTNCWLILELNLP [R19L],2.18
4,RVAKKLQSGLVWTNCWLINELNLP [R19N],3.94
5,RVAKKLQSGLVWTNCWLIPELNLP [R19P],1.53
6,RVAKKLQSGLVWTNCWLISELNLP [R19S],2.44
7,RVAKKLQSGLVWTNCWLIRMLNLP [E20M],1.33
8,RVAKKLQSGLVWTNCWLIRPLNLP [E20P],2.22
9,RVAKKLQSGLVWTNCWLIRTLNLP [E20T],3.57
10,RVAKKLQSGLVWTNCWLIRYLNLP [E20Y],3.02
11,RVAKKLQSGLVWTNCWLIREDNLP [L21D],3.05
12,RVAKKLQSGLVWTNCWLIREGNLP [L21G],5.81
13,RVAKKLQSGLVWTNCWLIREHNLP [L21H],2.79
14,RVAKKLQSGLVWTNCWLIREWNLP [L21W],2.9
15,RVAKKLQSGLVWTNCWLIRELDLP [N22D],5.55
16,RVAKKLQSGLVWTNCWLIRELGLP [N22G],2.7
17,RVAKKLQSGLVWTNCWLIRELILP [N22I],3.01
18,RVAKKLQSGLVWTNCWLIRELKLP [N22K],4.74
19,RVAKKLQSGLVWTNCWLIRELPLP [N22P],3.03
20,RVAKKLQSGLVWTNCWLIRELTLP [N22T],2.17
21,RVAKKLQSGLVWTNCWLIRELYLP [N22Y],3.15
22,RVAKKLQSGLVWTNCWLIRELNEP [L23E],2.88
23,RVAKKLQSGLVWTNCWLIRELNMP [L23M],3.59
